Reference: paper PMC2267215

Tests used:
[1] = target: NCAM 1FN3–2FN3 M610R mutant (human); assay: SEC; size-exclusion chromatography of the purified NCAM 1FN3–2FN3 proteins; data not shown
[2] = target: NCAM 1FN3–2FN3 Y672E mutant (human); assay: as above
[3] = target: NCAM 1FN3–2FN3 R690E mutant (human); assay: as above
[4] = target: FGFR1 D2-D3 (Homo sapiens) (UniProt P11362); conditions: cited from earlier work
[5] = target: NCAM 1FN3–2FN3 (wild-type FN3 domain tandem of human neural cell adhesion molecule) (human); assay: SPR; Biacore 3000, 25 °C; NCAM 1FN3–2FN3 proteins amine-coupled to a CM4 chip (1800 RU wild type, 1900 RU M610R); analytes FGFR1 D1–D3 or D2–D3 at 1–100 μM; HBS-EP running buffer, analytes in PBS; KD estimated from plateau values at equilibrium, very approximate

“NCAM 1FN3–2FN3 M610R mutant (domain or fragment)” gave a stoichiometry N [1] of 2.

Substance “NCAM 1FN3–2FN3 Y672E mutant (domain or fragment)” has a stoichiometry N [2] of 2.

Work on “NCAM 1FN3–2FN3 R690E mutant (domain or fragment)” yielded a stoichiometry N [3] of 2.

In the case of NCAM 1FN3-2FN3 (from UniProt P13591), the Kd [4] is given as 10 µM.

In the case of “FGFR1 D2–D3 (soluble ectodomain construct of fibroblast growth factor receptor 1, residues 151–364) (from UniProt P11362 151-364) (domain or fragment)”, the Kd [5] is reported as over 100 µM.
